The values below come from article PMC5795439.

Series [1] in a line: flow cytometry, surface anti-HA, 293T. The conditions noted are these: glycan changed form; control: untreated, same construct.
Series [2] can be described thus: virus release efficiency, p24 western blot, 293T. The note with it: glycan changed form; control: untreated, same construct. (In western blotting, separated proteins are transferred to a membrane and probed.)
Series [3] is described as follows: anti-HA western blot of 293T lysates. The note with it: glycan lost.
Series [4] in a line: flow cytometry, surface anti-HA, 293T.
Series [5] in a line: virus release efficiency, p24 western blot, 293T.
Series [6] can be described thus: flow cytometry, surface anti-tetherin, HeLa. The note with it: glycan changed form; control: untreated HeLa. (A flow cytometer gives signals particle by particle.)
Series [7] is described as follows: immunofluorescence microscopy, anti-tetherin, HeLa. The conditions noted are these: glycan changed form; control: untreated HeLa.
Series [8] can be described thus: virus release efficiency, HeLa endogenous tetherin. The conditions noted are these: glycan changed form; control: untreated HeLa.
Where [9] appears, read: glycan lost, control: untreated WT tetherin.
Where [10] appears, read: glycan lost, control: wild type.
Setting [11] is: glycan changed form, control: untreated, same construct.

For tetherin: kifunensine (N65A tetherin), in series [1], the localisation_or_trafficking entry was “decreases”. The “other: restriction of HIV-1 release” value in series [2] was “no change”.

tetherin: kifunensine (N92A tetherin): the localisation_or_trafficking result in series [1] is “decreases”. Moreover, the “other: restriction of HIV-1 release” value in series [2] is “no change”.

B1: tetherin: tunicamycin (protein)
parent chain: MASTSYDYCRVPMEDGDKRCKLLLGIGILVLLIIVILGVPLIIFTIKANSEACRDGLRAVMECRNVTHLLQQELTEAQKGFQDVEAQAATCNHTVMALMASLDAEKAQGQKKVEELEGEITTLNHKLQDASAEVERLRRENQVLSVRIADKKYYPSSQDSSSAAAPQLLIVLLGLSALLQ
As to B1, the expression_or_secretion entry in series [3] (control: untreated WT tetherin) is on record as “no change”. In series [4] (setting [9]), the localisation_or_trafficking result is “decreases”. The “other: restriction of HIV-1 release, fold_change” value in series [5] (setting [9]) is “decreases”.

B2: tetherin: kifunensine (protein)
parent chain: B1 parent chain
For the molecule B2, the localisation_or_trafficking entry in series [6] and in series [7] was “no change” each time. The “other: restriction of HIV-1 release” value in series [8] is recorded as “no change”.

B3: tetherin: N65A (protein)
parent chain: B1 parent chain
For B3, in series [3] (control: wild type), the expression_or_secretion entry is given as “no change”. Moreover, the localisation_or_trafficking entry in series [4] (setting [10]) was “no change”. Also, in series [5] (setting [10]), the “other: restriction of HIV-1 release” value is reported as “no change”.

B4: tetherin: N65,92A (protein)
parent chain: B1 parent chain
In the case of B4, the expression_or_secretion result in series [3] (control: wild type) was “increases”. Also, in series [4] (setting [10]), the localisation_or_trafficking result is “decreases”. Besides, in series [5] (setting [10]), the “other: restriction of HIV-1 release” value is recorded as “abolishes, there was a small (25%) decrease in VRE at 0.8 μg of input DNA”.

B5: tetherin: kifunensine (WT tetherin) (protein)
parent chain: B1 parent chain
Regarding B5, the localisation_or_trafficking result in series [4] (setting [11]) was “decreases”. In addition, the “other: restriction of HIV-1 release” value in series [5] (setting [11]) is “no change”.

B6: tetherin: N92A (protein)
parent chain: B1 parent chain
In the case of B6, in series [3] (control: wild type), the expression_or_secretion entry was “no change”. Also, the localisation_or_trafficking result in series [4] (setting [10]) was “no change”. Further, the “other: restriction of HIV-1 release” value in series [5] (setting [10]) was “no change”.
